Assay results taken from PMC10815899 (2024).

How the values were obtained:
[1] = target: T1, epithelial adhesin 6 of N. glabratus (N. glabratus (endogenous), UniProt Q6FX55 1-715); experiment: SPR
T1 chain: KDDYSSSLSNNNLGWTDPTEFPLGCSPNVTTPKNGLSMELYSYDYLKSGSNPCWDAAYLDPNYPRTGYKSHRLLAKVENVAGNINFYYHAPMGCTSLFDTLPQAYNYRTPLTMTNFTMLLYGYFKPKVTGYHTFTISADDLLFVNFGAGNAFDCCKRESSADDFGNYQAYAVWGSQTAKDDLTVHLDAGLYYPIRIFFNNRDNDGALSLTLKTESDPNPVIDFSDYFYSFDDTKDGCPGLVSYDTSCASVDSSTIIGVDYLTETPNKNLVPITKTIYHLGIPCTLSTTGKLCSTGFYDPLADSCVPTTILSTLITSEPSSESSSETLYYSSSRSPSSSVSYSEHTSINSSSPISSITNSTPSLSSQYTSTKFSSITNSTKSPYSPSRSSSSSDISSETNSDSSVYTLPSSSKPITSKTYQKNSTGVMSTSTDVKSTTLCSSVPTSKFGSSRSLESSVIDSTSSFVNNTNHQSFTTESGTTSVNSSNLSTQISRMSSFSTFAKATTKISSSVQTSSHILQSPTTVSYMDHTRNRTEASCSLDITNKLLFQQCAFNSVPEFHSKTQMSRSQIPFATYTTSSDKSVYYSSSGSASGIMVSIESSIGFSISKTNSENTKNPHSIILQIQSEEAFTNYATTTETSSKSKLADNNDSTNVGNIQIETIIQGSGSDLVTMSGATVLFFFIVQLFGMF

[2] = target: T1, epithelial adhesin 6 of N. glabratus; experiment: BLI
[3] = target: T1, epithelial adhesin 6 of N. glabratus; experiment: BLI

B1: cytoplasmic Nakaseomyces glabratus glyceraldehyde 3-phosphate dehydrogenase (enzyme)
chain: MVRIAINGFGRIGRLVLRVALSRSNIEVVAVNDPFITTDYAAYMFKYDSTHGRYAGEVTHDDKHIIIDGKKIAVHQERDPANLPWGSENIDIAIDSTGVFKELDTAQKHIDAGAKKVVITAPSSTAPMFVVGVNEDKYTSDLKIVSNASCTTNCLAPLAKVIDEAFGIEEGLMTTVHSLTATQKTVDGPSHKDWRGGRTASGNIIPSSTGAAKAVGKVLPQLQGKLTGMAFRVPTVDVSVVDLTVKLQKETTYDEIKKVIKQASEGKLKGVLGYTEDAVVSSDFLGDSRSSIFDASAGIQLSPKFVKLVSWYDNEYGYSTRVVDLVEHVAKN
modifications: biotin (NHS-biotin) in the microplate ligand-binding assays
koff [1]: 0.000209 s⁻¹
koff [2]: 0.00195 s⁻¹
Kd [3]: 6.89 nM
